These results are taken from patent publication US6570069B1, “Nucleic acids encoding plant inhibitors of apoptosis and transgenic cells and plants expressing them” (priority 2000, dated 2003).

“Also recorded” adds a separate entry of the source.

The test system of test [1] is recombinant active caspase-9. Put plainly: Enzyme inhibition assay with recombinant active caspase-9 and Ac-LEHD-AFC. It counts as biochemical, mammalian. As to conditions: Ac-LEHD-AFC substrate. Here is the method: (§1) pGEX4T-1-SfIAP and pGEX4T-1 -CpIAP plasmids were introduced into E. coli strain BL21 (DE3) containing the plasmid pT-Trx. GST fusion proteins were obtained by induction with 0.05 mM IPTG at 25° C. for 8 hours, then purified using glutathione-Sepharose, essentially as described (Deveraux, Q., Welsh, K. & Reed, J. Methods of Enzymology in press). Caspases-3, and -7, containing C-terminal His6-tags, and caspase-8 containing an N-terminal His6-tag were purified as described previously (Stennicke, H. R. & Salvesen, G. S. (I1997) J. Biol. Chem. 272, 25719-25723; Stennicke, H., et al., (1998) J. Biol. Chem. 273, 27084-27090; Stennicke, H., et al., (1999) J. Biol. Chem. 274, 8359-8362). Caspase-9 lacking the CARD domain (ΔCARD-caspase-9) was constructed by truncating the cDNA and introducing a start codon substituting Val139. The resulting cDNA was subcloned into pET-23b and expressed in BL21 (DE3), yielding fully processed enzyme when cells were induced using 0.2 mM IPTG at OD600=0.6 for 4 hrs (Stennicke, H., Deveraux, Q., Humike, E., Reed, J., Dixit, V. & Salvesen, G. (1999) J. Biol. Chem. 274, 8359-8362). All expressed caspases were purified by Ni-chelation affinity-chromatography, as described (Stennicke, H., et al., (1999) J. Biol. Chem. 274, 8359-8362; Stennicke, H. R. & Salvesen, G. S. (1997) J. Biol. Chem. 272, 25719-25723; Stennicke, H., et al., (1998) supra). Concentrations of purified enzymes were determined from absorbance at 280 nm based on the molar absorption coefficients: caspase-3 (A280=26,000M−1 cm−1), caspase-7 (A280=24,500 M−1 cm−1), caspase-9 (A280=30,010M−1 cm−1).
(§2) Caspase activity was assayed by release of 7-amino-4-trifluoromethyl-coumarin (AFC) from Ac-DEVD or Ac-LEHD-containing synthetic peptides (Calbiochem) using continuous-reading instuments as described (Quan, L. T. et al., (1995) J. Biol. Chem. 270:10377-10379).
To directly examine the possibility that SfIAP and CpLAP inhibit caspase-9, enzyme inhibition assays were performed using bacteria-produced recombinant active caspase-9, recombinant-purified SfIAP and CpIAP, and Ac-LEHD-AFC as a caspase-9 substrate.

The target in the next test is T1, caspase-3 (Homo sapiens, UniProt P42574).
T1 construct: His6 (C); made in house
T1 sequence (P42574 29-175 limits assumed): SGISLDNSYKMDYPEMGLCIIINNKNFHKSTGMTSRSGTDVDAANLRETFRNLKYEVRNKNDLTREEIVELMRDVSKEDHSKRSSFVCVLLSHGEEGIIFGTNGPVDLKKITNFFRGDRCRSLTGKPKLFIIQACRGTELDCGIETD
T1 sequence (P42574 176-277 limits assumed): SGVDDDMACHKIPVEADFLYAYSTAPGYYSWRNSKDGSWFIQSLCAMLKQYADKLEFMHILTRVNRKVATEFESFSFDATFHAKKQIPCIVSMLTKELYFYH
Put plainly: Binding to recombinant purified caspase-3. Also noted: species or system mammalian. On the procedure: as §1, with “All expressed caspases were purified by Ni-chelation affinity-chromatography, as described (Stennicke, H., et al., (1999) J. Biol. Chem. 274, 8359-8362; Stennicke, H. R. & Salvesen, G. S. (1997) J. Biol. Chem. 272, 25719-25723; Stennicke, H., et al., (1998) supra).” left out, “cm−1). […]” for “cm−1).”

Test [2] deals with DEVD-cleaving proteases in cell extracts treated with caspase-8. As to the kind of experiment: Cell-free caspase activation induced by active caspase-8 in HEK 293 cytosolic extracts. Type of test: biochemical, human. As to conditions: recombinant protein. Here is the method: as §2
Cytosolic extracts were prepared as described (Deveraux, Q., Takahashi, R., Salvesen, G. S. & Reed, J. C. (1997) Nature 388, 300-303) using human embryonic kidney (HEK) 293 cells. Cells were washed with ice-cold buffer A (20 mM HEPES pH 7.5, 10 mM KCl, 1.5 mM MgCl2, 1 mM EDTA and 1 mM DTT), suspended in 1 volume of buffer A, incubated on ice for 20 mins, and then disrupted by 15 passages through a 26-gauge needle. Cell extracts were purified by centrifugation at 15000 g for 12 mins and supernatants were stored at −80 ° C. For initiating caspase activation, either 100 nM of purified recombinant caspase-8 or 1 μM horse heart cytochrome c (Sigma) together with 1 mM dATP was added to extracts (Deveraux, Q. L., et al., (1998) EMBO J. 17, 2215-2223).
To further explore the mechanisms by which SfIAP and CpIAP inhibit mammalian apoptosis, a cell-free system in which exogenously added active caspase-8 or cyto c induces activation of caspase-3 and similar proteases, as measured by hydrolysis of Ac-DEVD-AFC (Quan, L. T. et al., (1995) J. Biol. Chem. 270, 10377-10379) was used. […]

B1: CpIAP: baculoviral (CpGV) inhibitor of apoptosis protein; complete ORF expressed myc-tagged or as GST-fusion (protein)
chain: MSDLRLEEVRLNTFEKWPVSFLSPETMAKNGFYYLGRSDEVRCAFCKVEIMRWKEGEDPAADHKKWAPQCPFVKGIDVCGSIVTTNNIQNTTTHDTIIGPAHPKYAHEAARVKSFHNWPRCMKQRPEQMADAGFFYTGYGDNTKCFYCDGGLKDWEPEDVPWEQHVRWFDRCAYVQLVKGRDYVQKVITEACVLPGENTTVSTAAPVSEPIPETKIEKEPQVEDSKLCKICYVEECIVCFVPCGHVVACAKCALSVDKCPMCRKIVTSVLKVYFS
modifications: left off: a dimerising Fc or GST
notes: complete ORF expressed myc-tagged or as GST-fusion
Regarding B1, in test [1], the “inhibition of recombinant active caspase-9” value was “inhibited recombinant active caspase-9 in a concentration-dependent manner; also recorded: direct inhibitors of mammalian caspase-9” and the “molar-excess relative to caspase-9 which produced ~50% inhibition of protease activity” value is reported as 12 fold. Further, the “binding to caspase-3” value in the test with caspase-3 is on record as “neither bound”. Also, the “effect on DEVD-cleaving proteases” value in test [2] is on record as “no effect on DEVD-cleaving proteases”.

B2: SfIAP: cellular IAP cloned from Spodoptera frugiperda, protein of 377 amino acids (SEQ ID NO:3); GST-fusion when recombinant (protein, listed as Spodoptera frugiperda)
chain: MWSCSLPCWNTKKSGLQMDITKVASNGSSSTLTLFKSGSLEAKIRPLAPLMLPTPSYDSNAGSPSLSPSTPCSSSSFSIDKTDNHDTFGFSADTVDMRKEDERMKTFEKWPVSFLSGEQLARNGFYYLGRRDEARCAFCKVEIMRWVEGDDPAKDHQRWAPQCPFVRKLNGTAAADTGSSGQDECGARAAPSGTSPPRMAGPVHPRYASEAARLRSFKDWPRCMRQKPEELAEAGFFYTGQGDKTKCFYCDGGLKDWENHDVPWEQHARWFDRCAYVQLVKGREYVQKVISEACEVSASEAERDVAPARTAEPSPPAEAPENSVDDSKLCKICYAEERNVCFVPCGHVVACAKCALAADKCPMCRRTFQNAVRLYFS
modifications: GST fusion when recombinant; fall armyworm inhibitor of apoptosis protein (SfIAP)
With B2, in test [1], the “inhibition of recombinant active caspase-9” value is on record as “inhibited recombinant active caspase-9 in a concentration-dependent manner; also recorded: direct inhibitors of mammalian caspase-9” and the “molar-excess relative to caspase-9 which produced ~50% inhibition of protease activity” value came to 8 fold. Moreover, in the test with caspase-3, the “binding to caspase-3” value was “neither bound”. Moreover, in test [2], the “effect on DEVD-cleaving proteases” value is recorded as “no effect on DEVD-cleaving proteases”.
